The target of one experiment is T1, QP009 (SIRPα) (Homo sapiens (Human)).
T1 construct: Entry includes a C-terminal flag-his tag as printed; also called recombinant protein QP009
T1 chain: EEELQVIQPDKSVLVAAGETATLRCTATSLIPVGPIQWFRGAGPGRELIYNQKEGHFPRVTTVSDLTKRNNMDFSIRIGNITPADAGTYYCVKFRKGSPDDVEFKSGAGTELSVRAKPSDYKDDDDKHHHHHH
The experiment can be described thus: ELISA of hybridoma supernatant on QP009.

Another experiment deals with QP003 (PDL1-his). Kind of experiment: ELISA, QP003 (PDL1-his) captured on coated anti-his, anti-hFc detection; unit from the x axis Log(Conc.(nM)).
Sequence of QP003 (PDL1-his) (chain, as listed by the source limits assumed): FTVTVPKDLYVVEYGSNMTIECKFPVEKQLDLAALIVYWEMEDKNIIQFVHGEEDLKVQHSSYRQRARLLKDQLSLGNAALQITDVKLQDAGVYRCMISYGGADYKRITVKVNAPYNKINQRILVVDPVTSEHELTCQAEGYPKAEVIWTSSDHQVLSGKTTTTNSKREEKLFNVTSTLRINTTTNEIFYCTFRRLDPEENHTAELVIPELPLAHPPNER
Experiment [1] concerns the target T2, PD-L1-mouse Fc protein (human, UniProt Q9NZQ7 19-239, limits assumed). The experiment can be described thus: competitive ELISA, PD-1 coated, PD-L1-mouse Fc.
Experiment [2] deals with T3, human PD-L1 on HCC827 cells (human, UniProt Q9NZQ7 19-290).
T3 construct: whole, on cells; also called HCC827 cells naturally expressing human PD-L1
T3 sequence (Q9NZQ7 19-290): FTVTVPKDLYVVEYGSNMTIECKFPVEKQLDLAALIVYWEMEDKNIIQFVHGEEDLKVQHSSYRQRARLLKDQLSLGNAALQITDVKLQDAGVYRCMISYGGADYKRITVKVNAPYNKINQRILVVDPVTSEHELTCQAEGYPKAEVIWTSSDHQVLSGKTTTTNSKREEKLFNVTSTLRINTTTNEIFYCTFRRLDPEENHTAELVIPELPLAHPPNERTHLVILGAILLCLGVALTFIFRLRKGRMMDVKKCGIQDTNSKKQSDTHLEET
Kind of experiment: FACS on HCC827 cells.

Experiment [3] concerns the target T4, PD-L1-his (QPP09) (human, UniProt Q9NZQ7 19-239, limits assumed).
T4 construct: also called human PD-L1; human PD-L1 recombinant protein
The experiment can be described thus: ELISA, PD-L1 captured by coated anti-HIS antibody.

The target of the next experiment is T5, Rhesus PD-L1 (rhesus monkey, UniProt F6PJN1 19-239).
T5 construct: also called rhesus monkey PD-L1
The experiment can be described thus: SPR, Biacore 8K.

Experiment [4] deals with T4, PD-L1-his (QPP09). Kind of experiment: SPR, Biacore 8K.
Experiment [5] deals with T2, PD-L1-mouse Fc protein. Kind of experiment: blocking ELISA: QP1138 (PD1-FC) coated, PDL1-mouse FC mixed with the antibody, HRP anti-mouse IgG; blocked partner: PD-1; unit from the x axis Log(Conc.(nM)).
Experiment [6] has as its target T6, QP271 (rhesus SIRPα1-flag-his T-557-28) (rhesus monkey).
T6 construct: also called rhesus monkey SIRPα (QP271); monkeySIRPα1-flag-his
T6 chain: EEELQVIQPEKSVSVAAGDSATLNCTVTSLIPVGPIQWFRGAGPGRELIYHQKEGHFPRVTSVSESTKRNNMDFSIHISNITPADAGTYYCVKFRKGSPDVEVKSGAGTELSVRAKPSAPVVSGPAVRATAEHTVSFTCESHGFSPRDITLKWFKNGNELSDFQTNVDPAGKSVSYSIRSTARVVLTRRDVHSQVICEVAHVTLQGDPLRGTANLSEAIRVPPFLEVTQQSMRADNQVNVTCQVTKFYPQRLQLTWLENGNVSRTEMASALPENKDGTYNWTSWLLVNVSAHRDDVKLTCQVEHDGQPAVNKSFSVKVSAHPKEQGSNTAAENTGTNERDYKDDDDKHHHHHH
The experiment can be described thus: SPR, Biacore 8K.

Experiment [7] has as its target T7, QP098 (cyno SIRPα (I7G9Z7) ECD(E31-R369)-flag-his) (cynomolgus).
T7 construct: the construct carries flag and his tags; also called cynoSIRPα (ECD); cynomolgus SIRPα
T7 chain: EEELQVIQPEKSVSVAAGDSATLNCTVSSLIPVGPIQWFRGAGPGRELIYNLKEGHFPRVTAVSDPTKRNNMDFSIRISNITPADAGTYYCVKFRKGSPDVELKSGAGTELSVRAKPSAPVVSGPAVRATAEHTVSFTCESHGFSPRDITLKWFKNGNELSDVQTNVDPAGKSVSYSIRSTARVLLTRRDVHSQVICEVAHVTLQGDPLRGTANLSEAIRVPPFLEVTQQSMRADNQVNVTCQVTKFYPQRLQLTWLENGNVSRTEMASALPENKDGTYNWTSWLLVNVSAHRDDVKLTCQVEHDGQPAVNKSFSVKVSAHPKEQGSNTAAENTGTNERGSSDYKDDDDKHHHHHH
The experiment can be described thus: SPR, Biacore 8K.

Experiment [8] has as its target T2, PD-L1-mouse Fc protein. The experiment can be described thus: competitive ELISA, CD80 coated, PD-L1-mouse Fc.
The target in experiment [9] is T4, PD-L1-his (QPP09). Kind of experiment: SPR, Biacore 8K. This is another data set of the same source.

Like-named read-outs stand apart in the source and are kept apart here.

The text below walks through data of patent publication US20250326840A1 (QURE BIOTECHNOLOGY SHANGHAI, published 2025).

T2 sequence (Q9NZQ7 19-239 limits assumed): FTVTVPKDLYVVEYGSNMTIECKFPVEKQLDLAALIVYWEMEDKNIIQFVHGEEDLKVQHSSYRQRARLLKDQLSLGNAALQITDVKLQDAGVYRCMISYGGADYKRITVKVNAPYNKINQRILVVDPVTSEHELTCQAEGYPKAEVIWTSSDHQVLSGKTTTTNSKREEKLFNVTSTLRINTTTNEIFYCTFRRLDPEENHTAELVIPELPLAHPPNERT
T4 sequence (Q9NZQ7 19-239 limits assumed): as above

B1: 71C10 (antibody, V domains shown)
VH: QVQLQQPGTELVRPGASVKLSCKASGYTFTNYWINWVKQRPGQGLEWIAMIDPSDSETHYNQIFKDKATLTVDKSSNTAYMQLSSLTSGDSAVYYCAMDYGSLYAMDYWGRGTSVTVSS
VL: DIVLTQSPASLAVSLGQRATISCRASKSVSSSGYNYIFWYQQKPGQPPKLLIYLASNLDSGVPARFSGSGSGTDFTLNIHPVEEEDAATYYCQHSRELPTFGGGTKLEIK
notes: Mouse hybridoma antibody tested as culture supernatant; also called hybridoma monoclonal antibody 71C10; single-cell clone 71C10
B1: the binding result with QP009 (SIRPα) is recorded as “binds”.

B2: Q-1801 (bispecific antibody, human IgG1, kappa, L234A L235A)
heavy: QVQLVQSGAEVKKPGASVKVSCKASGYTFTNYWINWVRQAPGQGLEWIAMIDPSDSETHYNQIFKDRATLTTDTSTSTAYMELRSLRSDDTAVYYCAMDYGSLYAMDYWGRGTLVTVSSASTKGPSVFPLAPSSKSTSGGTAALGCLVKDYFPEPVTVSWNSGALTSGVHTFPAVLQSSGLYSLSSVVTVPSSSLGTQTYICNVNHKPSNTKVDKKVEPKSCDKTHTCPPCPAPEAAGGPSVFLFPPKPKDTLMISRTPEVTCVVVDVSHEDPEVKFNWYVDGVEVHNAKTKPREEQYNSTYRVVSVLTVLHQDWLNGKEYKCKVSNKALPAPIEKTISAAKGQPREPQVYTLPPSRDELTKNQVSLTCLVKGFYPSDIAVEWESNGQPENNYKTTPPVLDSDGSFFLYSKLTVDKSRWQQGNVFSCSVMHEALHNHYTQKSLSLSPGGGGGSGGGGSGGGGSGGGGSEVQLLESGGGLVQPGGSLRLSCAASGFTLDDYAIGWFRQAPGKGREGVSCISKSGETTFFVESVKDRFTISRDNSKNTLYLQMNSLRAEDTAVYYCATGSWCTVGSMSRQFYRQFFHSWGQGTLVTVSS
light: DIVLTQSPDSLAVSLGERATINCRASQSVRSSGYNWIFWYQQKPGQPPKLLIYLASNRDSGVPDRFSGSGSGTDFTLTISSLQAEDVAVYYCQHSRELPTFGQGTKLEIKRTVAAPSVFIFPPSDEQLKSGTASVVCLLNNFYPREAKVQWKVDNALQSGNSQESVTEQDSKDSTYSLSSTLTLSKADYEKHKVYACEVTHQGLSSPVTKSFNRGEC
notes: Anti-SIRPα VH-CH1-Fc(L234A, L235A, K338A)-(G4S)4-anti-PD-L1 VHH heavy chain; kept as one molecule; also called CHO44; QP32820279
On to B2, for which the concentration for a half-maximal effect (EC50) with QP003 (PDL1-his) is 30.7 pM; in experiment [2] it was 142 pM; with PD-L1-his (QPP09) [3] it was 122 pM. Besides, the IC50 with PD-L1-mouse Fc protein [1] stood at 904 pM; with PD-L1-mouse Fc protein [5] it was 382 pM; with PD-L1-mouse Fc protein [8] it was 742 pM. Moreover, the Kd with Rhesus PD-L1 is 499 pM; with PD-L1-his (QPP09) [4] it was 431 pM; in experiment [6] it was 522 pM; in experiment [7] it was 2140 pM; in the experiment with PD-L1-his (QPP09) [9], 429 pM. Further, the koff in the experiment with Rhesus PD-L1 was found to be 0.000779 s⁻¹; with PD-L1-his (QPP09) [4], 0.000433 s⁻¹; in experiment [6], 0.00303 s⁻¹; in [7] it was 0.0117 s⁻¹; in the experiment with PD-L1-his (QPP09) [9], 0.000433 s⁻¹. For the same molecule, the kon stood at 1.56e+06 M⁻¹ s⁻¹ with Rhesus PD-L1; 1.01e+06 M⁻¹ s⁻¹ with PD-L1-his (QPP09) [4]; 5.81e+06 M⁻¹ s⁻¹ in experiment [6]; 5.46e+06 M⁻¹ s⁻¹ in experiment [7]; 1.01e+06 M⁻¹ s⁻¹ in the experiment with PD-L1-his (QPP09) [9].
